Measurements as given in US20260167741A1.

Legend:
[1] = molecular target: monomeric FcγRIIa-131H (human) (UniProt P12318); assay: BLI (Octet), steady-state, antibody on FAB2G sensor
[2] = molecular target: monomeric FcγRIIa-131R (human) (UniProt P12318); assay: as above
[3] = molecular target: monomeric FcγRIIb (human) (UniProt P31994); assay: as above
[4] = molecular target: tetrameric FcγRI-streptavidin-His labelled with Alexa647 (human) (UniProt P12314); assay: flow cytometry: SKOV-3 (HER2-expressing) cells treated with 100 nM antibody, then tetrameric FcγRI-Alexa647 (50 or 100 nM by paragraph 186, not said on the sheet)
Chain of tetrameric FcγRI-streptavidin-His labelled with Alexa647 (human) (P12314 other isoform, or with tags, fused parts or gaps limits assumed): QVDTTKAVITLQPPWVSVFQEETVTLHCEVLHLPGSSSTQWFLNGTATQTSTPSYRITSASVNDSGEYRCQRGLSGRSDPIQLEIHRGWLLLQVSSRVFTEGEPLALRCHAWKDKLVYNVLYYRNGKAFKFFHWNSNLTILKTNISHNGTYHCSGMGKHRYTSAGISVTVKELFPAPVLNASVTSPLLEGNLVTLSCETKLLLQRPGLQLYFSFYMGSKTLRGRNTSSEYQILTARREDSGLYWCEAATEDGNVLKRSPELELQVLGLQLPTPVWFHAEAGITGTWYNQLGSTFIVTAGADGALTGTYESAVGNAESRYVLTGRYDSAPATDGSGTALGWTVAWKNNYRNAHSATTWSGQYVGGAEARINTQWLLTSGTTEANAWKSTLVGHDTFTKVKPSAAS

[5] = molecular target: monomeric FcγRI (human) (UniProt P12314); assay: BLI (Octet), antibody on FAB2G sensor, monomeric FcγR in solution
Chain of monomeric FcγRI (human) (P12314 16-292 limits assumed): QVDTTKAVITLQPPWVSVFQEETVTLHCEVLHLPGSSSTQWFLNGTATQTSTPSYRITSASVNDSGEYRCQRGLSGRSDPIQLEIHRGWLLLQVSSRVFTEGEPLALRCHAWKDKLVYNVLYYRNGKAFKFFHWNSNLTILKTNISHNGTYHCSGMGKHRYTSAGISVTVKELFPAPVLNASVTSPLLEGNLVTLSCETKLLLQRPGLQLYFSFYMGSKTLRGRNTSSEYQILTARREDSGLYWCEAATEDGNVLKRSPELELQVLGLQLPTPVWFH

[6] = molecular target: monomeric FcγRIIIa-158F (human) (UniProt P08637); assay: as above
Chain of monomeric FcγRIIIa-158F (human) (P08637 17-208 limits assumed): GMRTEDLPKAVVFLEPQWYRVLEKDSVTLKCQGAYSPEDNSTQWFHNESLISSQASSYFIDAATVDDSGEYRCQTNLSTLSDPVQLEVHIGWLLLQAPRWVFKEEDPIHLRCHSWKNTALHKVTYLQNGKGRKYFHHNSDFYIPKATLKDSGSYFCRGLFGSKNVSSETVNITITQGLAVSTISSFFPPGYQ

[7] = molecular target: monomeric FcγRIIIa-158V (human) (UniProt P08637); assay: as above
Chain of monomeric FcγRIIIa-158V (human) (P08637 17-208 F176V limits assumed): as the sequence (P08637 17-208 limits assumed) above, with F160V counted along it

Chain of monomeric FcγRIIa-131H (human) (P12318 34-217 limits assumed): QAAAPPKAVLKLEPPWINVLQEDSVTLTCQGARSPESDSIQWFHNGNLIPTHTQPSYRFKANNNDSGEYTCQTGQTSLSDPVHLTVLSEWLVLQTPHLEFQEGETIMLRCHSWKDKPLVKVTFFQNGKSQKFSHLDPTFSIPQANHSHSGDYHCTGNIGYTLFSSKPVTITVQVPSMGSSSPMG
Chain of monomeric FcγRIIa-131R (human) (P12318 34-217 H167R limits assumed): as the sequence (P12318 34-217 limits assumed) above, with H134R counted along it
Chain of monomeric FcγRIIb (human) (P31994 43-217 limits assumed): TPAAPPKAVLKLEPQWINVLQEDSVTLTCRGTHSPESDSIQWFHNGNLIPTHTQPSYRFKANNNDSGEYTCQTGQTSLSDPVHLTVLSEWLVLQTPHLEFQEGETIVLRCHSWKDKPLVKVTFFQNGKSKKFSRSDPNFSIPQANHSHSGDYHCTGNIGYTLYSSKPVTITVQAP

## Trastuzumab-LALA (antibody)
[1]
  Kd: 38 µM
[2]
  Kd: 22 µM
[3]
  Kd: 390 µM
[4]
  MFI: 709
[5]
  Kd: 0.136 µM
  koff: 0.0203 s⁻¹
  kon: 149000 M⁻¹ s⁻¹
[6]
  Kd: 1.36 µM
  koff: 0.033 s⁻¹
  kon: 24300 M⁻¹ s⁻¹
[7]
  Kd: 1.19 µM
  koff: 0.0833 s⁻¹
  kon: 70200 M⁻¹ s⁻¹
